In the supplement of paper PMC10567573 one finds protein stability index data, which are given here for 53 proteins.

The data set is described as follows: protein stability index of a GFP-peptide fusion (GPS, HEK-293T) (PSI 1-6); higher = more stable.
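Also: lentivirally expressed fusions sorted by FACS into six bins by GFP to DsRed ratio, PSI derived from sequencing read proportions per bin multiplied by bin number.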

FSPDFTLRNTLKSTSEDSLVKQEC: the protein stability index (parent: IOH26921_45, c terminus: a fixed tail appended) was found to be 1.89. In the case of FIPAKTGKDVATQILEGELFDFDL, the protein stability index (parent: IOH27062_49, c terminus: a fixed tail appended) was found to be 1.77. Turning to LEAAEVILEHAHRGEQTTSQVSWE, the protein stability index (parent: IOH26591_31, c terminus: a fixed tail appended) worked out at 4.39.

For the protein FGGTGIPFGESNGNGVHVCNVKYK, the protein stability index (parent: IOH26494_29, c terminus: a fixed tail appended) is 2.05.

As for ILLVGYPPFWDEDQHRLYKQIKAG, the protein stability index (parent: IOH26807_35, c terminus: a fixed tail appended) was 2.33.

In the case of GEGTGSPPKWQIGEQEFEALMRML, the protein stability index (parent: IOH25868_61, c terminus: a fixed tail appended) was 3.11. On to LELKFVSSLRRQFEFSVDSFQIVL, for which the protein stability index (parent: IOH26845_27, c terminus: a fixed tail appended) was determined as 3.08. On to MTVKPAKAASLARNLAKRRRTYLG, for which the protein stability index (parent: IOH27062_1, c terminus: a fixed tail appended) came to 2.85.

Consider YVKAKKSIDKDEEFAGSSPQSSKS, for which the protein stability index (parent: IOH26921_28, c terminus: a fixed tail appended) turned out to be 3.04. Take KKLKIFAMPMQDIKMILKMVQLDS [PRAME WT]: under “parent: IOH26126_36, c terminus: a fixed tail appended”, the protein stability index stood at 2.56. With KLNCDPSRIYKPQTRLKRKQPVRK, the protein stability index (parent: IOH26584_53, c terminus: a fixed tail appended) stood at 3.47. As for FHKDCASRVNNASYCPHCGEESSK, where the note is “parent: IOH26527_103, c terminus: a fixed tail appended”, the protein stability index stood at 3.47. On to FTSSPSPFSSSSPENVEDSGLDSP, for which the protein stability index (parent: IOH26137_77, c terminus: a fixed tail appended) was found to be 1.88. Regarding EEINKNISDFGRQQLLPPFPSLHQ, the protein stability index (parent: IOH26527_40, c terminus: a fixed tail appended) was 2.94.

Consider TLVEAIKEQDGREVDWEYFYGLLF, for which the protein stability index (parent: IOH26584_46, c terminus: a fixed tail appended) came out at 1.91. Turning to ILGKVILWILHLLLECYIQYHHSK, the protein stability index (parent: IOH26789_17, c terminus: a fixed tail appended) stood at 2.97. Take QSSGKILLCPLCQEEEQAETPMAP: under “parent: IOH26053_9, c terminus: a fixed tail appended”, the protein stability index turned out to be 3.3. In the case of FISRTSIPNAASEEGDEDDWASNK, the protein stability index (parent: IOH27052_73, c terminus: a fixed tail appended) was 4.02. As for KTSLLDQLTNTSGTVIGVTSCIVI, for the setting “parent: IOH26431_56, c terminus: a fixed tail appended”, the protein stability index amounted to 3.09. With LLARLRELEQQIWKERDEYITKVS, the protein stability index (parent: IOH26053_32, c terminus: a fixed tail appended) stood at 1.67. Regarding GGFPIIRDQIFRYVHDPECVATTG, for the setting “parent: IOH26934_44, c terminus: a fixed tail appended”, the protein stability index was determined as 1.75. With AGGFQQRQGLKYCLPLTFCIHTGL, where the note is “parent: IOH26934_31, c terminus: a fixed tail appended”, the protein stability index is 2.73. Take EMVRFLLEAGADQEHKTDEMHTAL: the protein stability index (parent: IOH26350_70, c terminus: a fixed tail appended) turned out to be 2.65. As to AQVLMLGQILELPWKEETFLVLQS [FANCE WT], the protein stability index (parent: IOH26415_73, c terminus: a fixed tail appended) was determined as 2.44. For YCNFNKYIPRRLEEAAMQKCLVTE [RSAD1 WT], the protein stability index (parent: IOH26922_10, c terminus: a fixed tail appended) was 2.08. As for FLGSSFSPVRCGGPGDASPRGCGA, the protein stability index (parent: IOH27052_23, c terminus: a fixed tail appended) is 1.95. As to HDPLWRRHCKKYWLISEEEKTQKN, where the note is “parent: IOH26934_9, c terminus: a fixed tail appended”, the protein stability index stood at 2.91. As for LRHSFQKQQREKTRWLNSGRGDEA, for the setting “parent: IOH25868_73, c terminus: a fixed tail appended”, the protein stability index came out at 3.66.

As to SSKEEQKLIATSNKPAVKLLYNRS [KCTD10 WT], the protein stability index (parent: IOH25947_25, c terminus: a fixed tail appended) was 4.05.

On to INPFTPDSLLLHSSGQCRRRKRTY, for which, under “parent: IOH27052_40, c terminus: a fixed tail appended”, the protein stability index was determined as 3.35. Consider VDVQTELYLEEIADRIIEVDMECQ, for which the protein stability index (parent: IOH27062_43, c terminus: a fixed tail appended) was determined as 2.16.

For LTHFSRRYCQCNPDDSTSEDGIHT, the protein stability index (parent: IOH26041_65, c terminus: a fixed tail appended) was 3.23. Turning to KAASLARNLAKRRRTYLGGAAGRS, the protein stability index (parent: IOH27062_2, c terminus: a fixed tail appended) amounted to 2.6. Consider FIDTYSDVGRYIDHYAAIKKAWDD, for which, where the note is “parent: IOH26934_14, c terminus: a fixed tail appended”, the protein stability index was found to be 1.85. LELQRQREARKRALARKQAQEQLR: the protein stability index (parent: IOH27062_37, c terminus: a fixed tail appended) was determined as 3.77. For the protein FQEAMTHLQHKLICTRKPEEIRGG, the protein stability index (parent: IOH26845_36, c terminus: a fixed tail appended) amounted to 2.91. With LWILHLLLECYIQYHHSKIRNRGY, where the note is “parent: IOH26789_18, c terminus: a fixed tail appended”, the protein stability index was found to be 2.02.

Turning to GFSPIIGRFCGQQNPPVIKSSGRF, the protein stability index (parent: IOH26431_19, c terminus: a fixed tail appended) worked out at 2.17. As to LSQMGAQSSGKILLCPLCQEEEQA, the protein stability index (parent: IOH26053_8, c terminus: a fixed tail appended) worked out at 3.51.

For CIQQILEAVLHCHQMGVVHRDLKP, the protein stability index (parent: IOH26807_20, c terminus: a fixed tail appended) amounted to 2.46. On to DEEERRRRVFDVPIRRRRCSRLF, for which, where the note is “parent: IOH26934_79, c terminus: native”, the protein stability index turned out to be 2.81. Turning to QRLEEQERRHREEKERRKKQQWEI, where the note is “parent: IOH27062_61, c terminus: a fixed tail appended”, the protein stability index came to 4.62. As to SARQGELQKVLLMLVDGIDPNFKM, the protein stability index (parent: IOH26527_125, c terminus: a fixed tail appended) is 1.73. As to DKLALCHLELTRKLQDLIKDVLRY, the protein stability index (parent: IOH26137_14, c terminus: a fixed tail appended) was determined as 2.73. As to PDVENEVKRLLRSDAEAVSTRWEV [TAF7L WT], the protein stability index (parent: IOH26414_44, c terminus: a fixed tail appended) is 3.49.

Regarding HLELTRKLQDLIKDVLRYGEEQLK, the protein stability index (parent: IOH26137_15, c terminus: a fixed tail appended) turned out to be 2.46. Regarding FASDGDSGTCSPLRHSFQKQQREK, the protein stability index (parent: IOH25868_71, c terminus: a fixed tail appended) was determined as 3.71.

Take PLMGETQERERVLTHFSRRYCQCN: the protein stability index (parent: IOH26041_63, c terminus: a fixed tail appended) stood at 3.06. As to FSDPSQSDPETKDFWLNMAALTEA, the protein stability index (parent: IOH26137_117, c terminus: a fixed tail appended) was determined as 2.84. Take LQEPGVFSPTPPQQFQPAGTDQVC: the protein stability index (parent: IOH26591_36, c terminus: a fixed tail appended) turned out to be 3.96. As to PSLLELAWEKLLAAFPNLANLSRT, for the setting “parent: IOH26494_68, c terminus: a fixed tail appended”, the protein stability index was determined as 2.3.

For CPIIRIPNRFLRGHRPPPARSGHR, the protein stability index (parent: IOH26494_13, c terminus: a fixed tail appended) stood at 1.87. For the protein EVLRRLTSSVSCALDEAAAALTRM, for the setting “parent: IOH26350_34, c terminus: a fixed tail appended”, the protein stability index came to 1.95.
